Measurements from patent US9999664B2, “HIV-1 gp120 mini V3 loop and uses thereof” (The Scripps Research Institute, priority 2011, dated 2018).

Experiments:
[1] = test system: 2G12; conditions: 2G12 at 1:10000 dilution; earlier experiment, different version of the microarray; cited from earlier work
[2] = test system: PGT 127; experiment: Neoglycolipid microarray binding, PGT 127; conditions: PGT 127 at 10 μg/ml pre-complexed with biotinylated anti-human-IgG; 5 fmol/spot
Experimental: (§1) The microarrays (designated N-glycan-related Array Set 1) consisted of NGLs prepared by reductive amination (70) or oxime ligation (71) (Table S5). These were robotically printed onto nitrocellulose-coated glass slides as described (72), each at two levels (2 and 5 fmol/spot) in duplicate. The binding assays (70) were performed at ambient temperature. The PGTs 127 and 128 were pre-complexed with biotinylated anti-human-IgG (Vector) at a 1:3 ratio, w/w, before applying onto the slides at a final concentration of 10 μg/ml. Biotinylated ConA (Vector) was tested at 0.5 μg/ml. Binding was detected with Alexa-Fluor 647 labelled streptavidin (Molecular Probes) at 1 μg/ml. Microarray data analysis was performed with dedicated software. Binding signals were oligosaccharide dose-related. Results at 5 fmol/spot with selected oligomannose NGLs (prepared by reductive amination) are in FIG. 9A, and the full data with the 50 NGLs are shown in Table S6. Included for comparison are the results with human 2G12 (Polymun Scientific) taken from an earlier experiment performed using a different version of microarrays (73). Antibody 2G12 was analyzed at 1:10000 dilution (without pre-complexation), and the binding was detected with biotinylated anti-human-IgG followed by Alexa-Fluor 647 labelled streptavidin.

[3] = target: T1, plant lectin ConA (Canavalia ensiformis, UniProt P02866); experiment: Neoglycolipid microarray binding, ConA; conditions: biotinylated ConA at 0.5 μg/ml
T1 construct: purchased Vector
Experimental: as §1

[4] = test system: PGT 128; experiment: Neoglycolipid microarray binding, PGT 128; conditions: PGT 128 at 10 μg/ml pre-complexed with biotinylated anti-human-IgG; 5 fmol/spot
Experimental: as §1

[5] = target: gp120 JR-CSF (HIV-1 JR-CSF) (UniProt P20871); experiment: gp120 ELISA
[6] = target: gp120 BaL (HIV-1 BaL); experiment: gp120 ELISA
[7] = target: gp120 JR-FL (HIV-1 JR-FL); experiment: gp120 ELISA
[8] = target: HIV-1 BaL envelope (Env) on pseudovirus (HIV-1 BaL); experiment: cell-based or functional assay
[9] = target: HIV-1 JR-CSF envelope (Env) on pseudovirus (HIV-1 JR-CSF) (UniProt P20871); experiment: cell-based or functional assay
[10] = target: gp120 (ELISA antigen of FIG. 3, strain not stated) (HIV-1, strain not stated); experiment: ELISA on coated gp120, absorbance at 405 nm
[11] = target: HIV-1 JR-FL envelope (Env) on pseudovirus (HIV-1 JR-FL); experiment: cell-based or functional assay

Compound	Fluorescence signal intensity 2G12 [1]	Fluorescence signal intensity 127 [2]	Fluorescence signal intensity ConA [3]	Fluorescence signal intensity 128 [4]	fold change in gp120 binding (EC50 variant/EC50 WT) [5] [fold]	fold change in gp120 binding (EC50 variant/EC50 WT) [6] [fold]	fold change in gp120 binding (EC50 variant/EC50 WT) [7] [fold]	Fold change in neutralization (IC50 variant/IC50 WT antibody) [8] [fold]	Fold change in neutralization (IC50 variant/IC50 WT antibody) [9] [fold]	EC50 (read off the curve) [10] [µg/mL]	Fold change in neutralization (IC50 variant/IC50 WT antibody) [11] [fold]
CCCCCCCCCCCCCCCCOCC(COP(=O)(O)OCCNCC(NC(C)=O)C(O)C(OC1OC(CO)C(OC2OC(COC3OC(COC4OC(CO)C(O)C(O)C4O)C(O)C(OC4OC(CO)C(O)C(O)C4O)C3O)C(O)C(O)C2O)C(O)C1NC(C)=O)C(O)CO)OCCCCCCCCCCCCCCCC (centres unmarked) [Man4bGN2-DH]	— (Signal less than 1)	— (Signal less than 1)	16,615	— (Signal less than 1)							
CCCCCCCCCCCCCCCCOCC(COP(=O)(O)OCCNCC(O)C(OC1OC(CO)C(O)C(O)C1O)C(O)C(O)COC1OC(COC2OC(CO)C(O)C(O)C2O)C(O)C(OC2OC(CO)C(O)C(O)C2O)C1O)OCCCCCCCCCCCCCCCC (stereo not drawn) [Man5(α3,α6)-DH]	34	— (Signal less than 1)	15,291	— (Signal less than 1)							
CCCCCCCCCCCCCCCCOCC(COP(=O)(O)OCCNCC(NC(C)=O)C(O)C(OC1OC(CO)C(OC2OC(COC3OC(COC4OC(CO)C(O)C(O)C4O)C(O)C(OC4OC(CO)C(O)C(O)C4O)C3O)C(O)C(OC3OC(CO)C(O)C(O)C3O)C2O)C(O)C1NC(C)=O)C(O)CO)OCCCCCCCCCCCCCCCC (centres unmarked) [Man5GN2-DH]	— (Signal less than 1)	— (Signal less than 1)	16,390	— (Signal less than 1)							
CCCCCCCCCCCCCCCCOCC(COP(=O)(O)OCCNCC(NC(C)=O)C(O)C(OC1OC(CO)C(OC2OC(COC3OC(COC4OC(CO)C(O)C(O)C4O)C(O)C(OC4OC(CO)C(O)C(O)C4O)C3O)C(O)C(OC3OC(CO)C(O)C(O)C3OC3OC(CO)C(O)C(O)C3O)C2O)C(O)C1NC(C)=O)C(O)CO)OCCCCCCCCCCCCCCCC (centres unmarked) [Man6GN2-DH]	49	— (Signal less than 1)	19,006	— (Signal less than 1)							
CCCCCCCCCCCCCCCCOCC(COP(=O)(O)OCCNCC(NC(C)=O)C(O)C(OC1OC(CO)C(OC2OC(COC3OC(COC4OC(CO)C(O)C(O)C4OC4OC(CO)C(O)C(O)C4O)C(O)C(OC4OC(CO)C(O)C(O)C4OC4OC(CO)C(O)C(O)C4O)C3O)C(O)C(OC3OC(CO)C(O)C(O)C3OC3OC(CO)C(O)C(O)C3OC3OC(CO)C(O)C(O)C3O)C2O)C(O)C1NC(C)=O)C(O)CO)OCCCCCCCCCCCCCCCC (centres unmarked) [Man9GN2-DH]	11,717	24,209	21,359	26,071							
Glcα-6Glcα-6Glcα-6Glcα-6Glcα-6Glc-AO [Dextran-6-AO]	— (Signal less than 1)	— (Signal less than 1)	1,138	— (Signal less than 1)							
PGT 128 IgG variant HC A30S (antibody)					0.8	0.6	0.7	1.4	0.9		
PGT 128 IgG variant HC A31S (antibody)					0.8	0.9	1.1	1.2	1.1		
PGT 128 IgG variant HC D27A (antibody)					1.1	1.1	1	1.6	0.9		
PGT 128 IgG variant HC D72A (antibody)					0.9	0.7	0.7	1.2	1		
PGT 128 IgG variant HC G55D (antibody)					0.7	2.5	1.4	2.3	2		
PGT 128 IgG variant HC H52aA (antibody)					64	2.4	2.8	9.8	2.4	0.09	146
PGT 128 IgG variant HC H59A (antibody)					1	1	0.8	11.5	6.8		12.4
PGT 128 IgG variant HC K100gA (antibody)						28	22.3	1700	142	1	> 3000
PGT 128 IgG variant HC L51A (antibody)					0.7	1.5	0.7	1.2	1.2		
PGT 128 IgG variant HC L100A (antibody)					1.7	1.3		2	0.8		
PGT 128 IgG variant HC N33A (antibody)					0.5	0.8	0.6	0.4	0.7		
PGT 128 IgG variant HC R54A (antibody)					0.9	0.6	0.5	2.3	0.6		
PGT 128 IgG variant HC R100aA (antibody)					0.7	1.5	1	2.1	1.3		
PGT 128 IgG variant HC W52fA (antibody)					1.5	1.5	1	29.5	3.9		34.5
PGT 128 IgG variant HC Y52eA (antibody)					1.2	0.9	0.7	12.9	2.1		21.1
